The record followed here is patent publication US20230190881A1 (BIOTEST, published 2023).

The experiment has as its target T1, human serum albumin (HSA) (human, UniProt P02768 25-609).
T1 construct: also called human albumin; Albiomin 20%
Description: FVIII antigen ELISA on plasma samples; albumin binding inferred from reduced detection. (An ELISA detects its analyte on a solid surface through an enzyme-linked reagent.)

B1: AD2CD2-19M_SC (other)
chain: ATRRYYLGAVELSWDYMQSDLGELPVDARFPPRVPKSFPFNTSVVYKKTLFVEFTDHLFSIAKPRPPWMGLLGPTIQAEVYDTVVITLKNMATHPVSLHAVGVSYWKASEGAEYDDQTSQREKEDDKVFPGGSHTYVWQVSKENGPMASDPQCLTYSYLSHVDLAKDLNSGLIGALLVCREGSLAKEKTQTLHKFILLFAVFDEGKSWHSETKDSLMQDRDAASARAWPKMHTVNGYVNRSLPGLTGCHRKSVYWHVIGMGTTPEVHSIFLEGHTFLVRDHRQASLEISPITFLTAQTLLMDLGQFLLFCHISSHQHDGMEAYVKVDSCPEEPQLRMKNNEEAEDYDDDLTDSEMDVVRFDDDNSPSFIQIRSVAKKHPKTWVHYIAAEEEDWDYAPLVLAPDDRSHKSQYLNNGPQRIGRKYKKVRFMAYTDETFKTREAIQHESGILGPLLYGEVGDTLLIIFKNQASRPYNIYPHGITDVRPLYERRLPKGVKHLKDFPILPGEIFKYKWTVTVEDGPTKSDPRCLTRYYSSHVNMERDLASGLIGPLLICYKESVDQRGNQIMSDKRNVILFSVFDENRSWYLTENIQRFLPEPAGVQLEDPEFQASNIMHSINGYVFDSLQLSVCLHEVAYWYILSIGAQTDFLSVFFSGYTFKHKMVYEDTLTLFPFSGETVFMSMENPGNWILGCHNSDFRNRGMTALLKVSSCDKNTGDYYEDSYEDISASLLSKNNAIEPRSFSQNPPVLSKNNAIEPRSFSQNSRHPSLAEAKEAANAELDSYGVSDFYKRLIDKAKTVEGVEALKDAILAALPGSGGSGGSGGSGSGSKNNAIEPRSFSQNSRHPSGSGGSGGSGGSGSLAEAKEAANAELDSYGVSDFYKRLIDKAKTVEGVEALKDAILAALPSKNNAIEPRSFSQNSRHPSQSDQEEIDYDDTISVEMKKEDFDIYDEDENQSPRSFQKKTRHYFIAAVERLWDYGMSSSPHVLRNRAQSGSVPQFKKVVFQEFTDGSFTQPLYRGELNEHLGLLGPYIRAEVEDNIMVTFRNQASRPYSFYSSLISYEEDQRQGAEPRKNFVKPNETKTYFWEVQHHMAPTKDEFDCKAWAYFSDVDLEKDVHSGLIGPLLVCHTNTLNPAHGRQVTVQEFALFFTIFDETKSWYFTENMERNCRAPCNIQMEDPTFKENYRFHAINGYIMDTLPGLVMAQDQRIRWYLLSMGSNENIHSIHFSGHVFTVRKKEEYKMALYNLYPGVFETVEMLPSKAGIWRVECLIGEHLHAGMSTLFLVYSDKCQTPLGMASGHIRDFQITASGQYGQWAPKLARLHYSGGINAWSTKEPFSWIKVDLLAPMIIHGIKTQGARQKFSSLYISQFIIMYSLDGKKWQTYRGNSTGTLMVFFGNVDSSGIKHNIFNPPIIARYIRLHPTHYSIRSTLRMELMGCDLNSCSMPLGMESKAISDAQITASSYFTNMFATWSPSKARLHLQGRSNAWRPQVNNPKEWLQVDFQKTMKVTGVTTQGVKSLLTSMYVKEFLISSSQDGHQWTLFFQNGKVKVFQGNQDSFTPVVNTLDPPLLTRYLRIHPQSWAHQIALRMEVLGCEAQDLYSKNNAIEPRSFSQNSRHPSLAEAKEAANAELDSYGVSDFYKRLIDKAKTVEGVEALKDAILAALPGSGGSGGSGGSGSGSKNNAIEPRSFSQNSRHPSGSGGSGGSGGSGSLAEAKEAANAELDSYGVSDFYKRLIDKAKTVEGVEALKDAILAALP
notes: also called de-immunized FVIII-ABD fusion molecule
With B1, the binding result is recorded as “binds”.

B2: AD2CD2_SC (other)
chain: ATRRYYLGAVELSWDYMQSDLGELPVDARFPPRVPKSFPFNTSVVYKKTLFVEFTDHLFNIAKPRPPWMGLLGPTIQAEVYDTVVITLKNMASHPVSLHAVGVSYWKASEGAEYDDQTSQREKEDDKVFPGGSHTYVWQVLKENGPMASDPLCLTYSYLSHVDLVKDLNSGLIGALLVCREGSLAKEKTQTLHKFILLFAVFDEGKSWHSETKNSLMQDRDAASARAWPKMHTVNGYVNRSLPGLIGCHRKSVYWHVIGMGTTPEVHSIFLEGHTFLVRNHRQASLEISPITFLTAQTLLMDLGQFLLFCHISSHQHDGMEAYVKVDSCPEEPQLRMKNNEEAEDYDDDLTDSEMDVVRFDDDNSPSFIQIRSVAKKHPKTWVHYIAAEEEDWDYAPLVLAPDDRSYKSQYLNNGPQRIGRKYKKVRFMAYTDETFKTREAIQHESGILGPLLYGEVGDTLLIIFKNQASRPYNIYPHGITDVRPLYSRRLPKGVKHLKDFPILPGEIFKYKWTVTVEDGPTKSDPRCLTRYYSSFVNMERDLASGLIGPLLICYKESVDQRGNQIMSDKRNVILFSVFDENRSWYLTENIQRFLPNPAGVQLEDPEFQASNIMHSINGYVFDSLQLSVCLHEVAYWYILSIGAQTDFLSVFFSGYTFKHKMVYEDTLTLFPFSGETVFMSMENPGLWILGCHNSDFRNRGMTALLKVSSCDKNTGDYYEDSYEDISAYLLSKNNAIEPRSFSQNPPVLSKNNAIEPRSFSQNSRHPSLAEAKEAANAELDSYGVSDFYKRLIDKAKTVEGVEALKDAILAALPGSGGSGGSGGSGSGSKNNAIEPRSFSQNSRHPSGSGGSGGSGGSGSLAEAKEAANAELDSYGVSDFYKRLIDKAKTVEGVEALKDAILAALPSKNNAIEPRSFSQNSRHPSQSDQEEIDYDDTISVEMKKEDFDIYDEDENQSPRSFQKKTRHYFIAAVERLWDYGMSSSPHVLRNRAQSGSVPQFKKVVFQEFTDGSFTQPLYRGELNEHLGLLGPYIRAEVEDNIMVTFRNQASRPYSFYSSLISYEEDQRQGAEPRKNFVKPNETKTYFWKVQHHMAPTKDEFDCKAWAYFSDVDLEKDVHSGLIGPLLVCHTNTLNPAHGRQVTVQEFALFFTIFDETKSWYFTENMERNCRAPCNIQMEDPTFKENYRFHAINGYIMDTLPGLVMAQDQRIRWYLLSMGSNENIHSIHFSGHVFTVRKKEEYKMALYNLYPGVFETVEMLPSKAGIWRVECLIGEHLHAGMSTLFLVYSNKCQTPLGMASGHIRDFQITASGQYGQWAPKLARLHYSGSINAWSTKEPFSWIKVDLLAPMIIHGIKTQGARQKFSSLYISQFIIMYSLDGKKWQTYRGNSTGTLMVFFGNVDSSGIKHNIFNPPIIARYIRLHPTHYSIRSTLRMELMGCDLNSCSMPLGMESKAISDAQITASSYFTNMFATWSPSKARLHLQGRSNAWRPQVNNPKEWLQVDFQKTMKVTGVTTQGVKSLLTSMYVKEFLISSSQDGHQWTLFFQNGKVKVFQGNQDSFTPVVNSLDPPLLTRYLRIHPQSWVHQIALRMEVLGCEAQDLYSKNNAIEPRSFSQNSRHPSLAEAKEAANAELDSYGVSDFYKRLIDKAKTVEGVEALKDAILAALPGSGGSGGSGGSGSGSKNNAIEPRSFSQNSRHPSGSGGSGGSGGSGSLAEAKEAANAELDSYGVSDFYKRLIDKAKTVEGVEALKDAILAALP
For B2, the binding result is “binds”.
